Data from the Human Domainome abundance scans (Beltran et al. 2025).
± gives the uncertainty stated by the source.

B1: Ventral anterior homeobox 1, residues 102 to 157; numbered along this chain, Q5SQQ9 (parent)
chain: RTRTSFTAEQLYRLEMEFQRCQYVVGRERTELARQLNLSETQVKVWFQNRRTKQKK

Variants of: B1
Assay: abundance fitness (aPCA) (normalised: wild type 0, dead -1); higher = more abundant; growth selection in yeast, the domain comes from the species named
Settings: Homo sapiens

Abundance fitness of substitutions, site by site:
A8: W -0.348 ± 0.16; F -0.473 ± 0.21; G -0.205 ± 0.084
E17: M -0.281 ± 0.23; Q -0.296 ± 0.27; H -0.044 ± 0.23; L -0.558 ± 0.2; G -0.679 ± 0.14
L38: M -0.112 ± 0.15; S -0.321 ± 0.14; W -0.861 ± 0.17
S39: Q -0.313 ± 0.15; F -0.435 ± 0.19; L -0.591 ± 0.15; V -0.488 ± 0.16; C -0.266 ± 0.16; Y -0.649 ± 0.34; K -0.25 ± 0.2
F18: I -0.689 ± 0.34; Y -0.124 ± 0.23
E40: W -0.736 ± 0.22; K -0.676 ± 0.35; P -0.318 ± 0.17; Q -0.507 ± 0.19; A -0.215 ± 0.16
T41: L 0.024 ± 0.11; N -0.127 ± 0.35; Y -0.2 ± 0.19; R -0.336 ± 0.1
F47: T -0.792 ± 0.24; Y -0.376 ± 0.34; R -0.873 ± 0.18; Q -0.767 ± 0.25
K44: P -0.94 ± 0.22; E 0.048 ± 0.15; H -0.26 ± 0.24; Y -0.271 ± 0.2; N 0.002 ± 0.16; Q -0.091 ± 0.14; D 0.129 ± 0.23; G -0.049 ± 0.11; C -0.069 ± 0.16
V25: I -0.226 ± 0.2; K -0.18 ± 0.16; C 0.114 ± 0.25; T -0.087 ± 0.12; Q 0.121 ± 0.17; F -0.073 ± 0.22; Y -0.377 ± 0.29
Q19: I -0.165 ± 0.21; E -0.039 ± 0.14; C -0.225 ± 0.16; M -0.133 ± 0.17; W -0.213 ± 0.15; T -0.046 ± 0.14; S -0.063 ± 0.13; F -0.33 ± 0.24; A -0.002 ± 0.12
N49: T 0.072 ± 0.18; D -0.019 ± 0.32; V -0.1 ± 0.12; Q -0.038 ± 0.21; S -0.277 ± 0.14
Q48: S -0.111 ± 0.16; R -0.172 ± 0.15; D -0.11 ± 0.44; I -0.284 ± 0.46; A -0.167 ± 0.2; H -0.505 ± 0.39; L -0.051 ± 0.2; W -0.619 ± 0.27; K 0.142 ± 0.45
V24: M -0.16 ± 0.18; C 0.12 ± 0.21; L 0.059 ± 0.14; R -0.243 ± 0.13; Q -0.559 ± 0.24; W -0.416 ± 0.24; Y -0.421 ± 0.25; N -0.25 ± 0.32; I -0.086 ± 0.15; G -0.436 ± 0.14
C21: P -0.231 ± 0.41; F -0.21 ± 0.41; R -0.229 ± 0.17; M -0.434 ± 0.27; Q -0.37 ± 0.27; T -0.019 ± 0.35; G -0.16 ± 0.2; A -0.166 ± 0.31
Q54: W -0.187 ± 0.11; C -0.252 ± 0.2; I -0.191 ± 0.32; A 0.018 ± 0.09; H -0.149 ± 0.18; V -0.017 ± 0.088; N -0.202 ± 0.3
E9: W -0.12 ± 0.13; M -0.235 ± 0.18; C -0.299 ± 0.18; N -0.733 ± 0.34; H -0.509 ± 0.25
Q42: C -0.563 ± 0.49; K -0.473 ± 0.3; L -0.137 ± 0.15; W -0.397 ± 0.23; T 0.163 ± 0.19; G -0.603 ± 0.13; F -0.266 ± 0.45; P -0.824 ± 0.37; N -0.257 ± 0.31
R1: T -0.465 ± 0.37; I 0.024 ± 0.34; C 0.058 ± 0.18; S -0.042 ± 0.2
R27: V -0.01 ± 0.12; A 0.07 ± 0.14; Q 0.009 ± 0.15; Y -0.108 ± 0.21; G 0.003 ± 0.097; H -0.245 ± 0.26
L36: A -0.601 ± 0.12; S -0.687 ± 0.13; F -0.741 ± 0.21; M -0.184 ± 0.18; T -0.264 ± 0.17; V -0.173 ± 0.089
Q22: I -0.38 ± 0.25; P -0.133 ± 0.18; E 0.024 ± 0.16; F -0.585 ± 0.38; N -0.285 ± 0.27; T -0.17 ± 0.16; M -0.249 ± 0.21; D -0.081 ± 0.16; W -0.383 ± 0.17
Y23: V -0.045 ± 0.21; L 0.055 ± 0.15; F -0.088 ± 0.24; I -0.117 ± 0.29; S 0.03 ± 0.15; M 0.181 ± 0.28; D -0.164 ± 0.42
V45: N -0.248 ± 0.27; W 0.015 ± 0.1; T 0.126 ± 0.16; K -0.258 ± 0.18; G -0.159 ± 0.084; D 0.185 ± 0.16; Q -0.061 ± 0.18; Y -0.046 ± 0.21; R -0.156 ± 0.095
G26: N -0.318 ± 0.13; D -0.153 ± 0.12; H -0.413 ± 0.12; L -0.297 ± 0.094; I -0.63 ± 0.12; P -0.208 ± 0.11; T -0.453 ± 0.11; K -0.15 ± 0.22
T4: E 0.169 ± 0.15; R -0.35 ± 0.11; I -0.193 ± 0.23; C -0.165 ± 0.18; S -0.058 ± 0.13; W -0.095 ± 0.14; V -0.092 ± 0.12
